This note sets out measurements from patent US20250262210A1 (TRUSTEES OF COLUMBIA UNIVERSITY IN THE CITY OF NEW YORK, published 2025).

Positions count from the first letter of the chain named.

For assay [1], the target named is T1, LZTR1 R810W-FLAG (human, UniProt Q8N653 1-840).
T1 construct: Stably expressed in U87 cells by lentivirus; also called LZTR1-FLAG-R810W; LZTR1 RW; not shown: FLAG tag
T1 sequence (looked up): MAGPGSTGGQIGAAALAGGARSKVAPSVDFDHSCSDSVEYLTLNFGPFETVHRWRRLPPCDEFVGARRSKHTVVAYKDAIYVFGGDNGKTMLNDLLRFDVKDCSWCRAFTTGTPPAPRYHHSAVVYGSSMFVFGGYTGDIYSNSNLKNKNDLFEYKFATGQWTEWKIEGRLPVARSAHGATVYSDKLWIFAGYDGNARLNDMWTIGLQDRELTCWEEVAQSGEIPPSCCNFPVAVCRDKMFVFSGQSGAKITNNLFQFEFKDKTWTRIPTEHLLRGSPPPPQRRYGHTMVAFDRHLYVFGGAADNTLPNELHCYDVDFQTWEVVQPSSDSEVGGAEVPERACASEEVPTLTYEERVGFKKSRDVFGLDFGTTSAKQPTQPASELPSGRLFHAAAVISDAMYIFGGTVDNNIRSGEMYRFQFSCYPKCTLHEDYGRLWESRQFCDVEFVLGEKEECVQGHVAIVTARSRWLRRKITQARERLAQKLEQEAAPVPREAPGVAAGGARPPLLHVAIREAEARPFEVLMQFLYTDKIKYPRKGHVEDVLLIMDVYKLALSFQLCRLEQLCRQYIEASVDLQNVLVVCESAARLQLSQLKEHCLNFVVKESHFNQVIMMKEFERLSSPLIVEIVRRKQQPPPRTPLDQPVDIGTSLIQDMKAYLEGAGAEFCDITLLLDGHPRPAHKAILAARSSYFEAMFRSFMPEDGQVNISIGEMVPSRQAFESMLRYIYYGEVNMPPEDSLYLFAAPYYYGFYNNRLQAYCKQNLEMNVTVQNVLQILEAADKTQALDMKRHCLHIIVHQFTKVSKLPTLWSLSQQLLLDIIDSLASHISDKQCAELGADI
Briefly: IP/MS, LZTR1 R810W-FLAG, U87. The procedure:
(§1) Lysates were immunoprecipitated with FLAG affinity matrix and eluted with FLAG peptide. […] Protein gel slices were excised and in-gel digestion performed as previously described (83), with minor modifications. Gel slices were washed with 1:1 A cetonitrile and 100 mM ammonium bicarbonate for 30 min then dehydrated with 100% acetonitrile for 10 min until shrunk. The excess acetonitrile was then removed and the slices dried in speed-vacuum at room temperature for 10 min. Gel slices were reduced with 5 mM DTT for 30 min at 56° C. in an air thermostat, cooled down to room temperature, and alkylated with 11 mM IAA for 30 min with no light. Gel slices were then washed with 100 mM of ammonium bicarbonate and 100% acetonitrile for 10 min each. Excess acetonitrile was removed and dried in a speed-vacuum for 10 min at room temperature and the gel slices were re-hydrated in a solution of 25 ng/μl trypsin in 50 mM ammonium bicarbonate for 30 min on ice and digested overnight at 37° C. in an air thermostat. Digested peptides were collected and further extracted from gel slices in extraction buffer (1:2 ratio by volume of 5% formic acid:acetonitrile) at high speed, shaking in an air thermostat. The supernatants from both extractions were combined and dried in a speed-vacuum. Peptides were dissolved in 3% acetonitrile/0.1% formic acid. Desalted peptides were injected in an EASY-Spray™ PepMap™ RSLC C18 50 cm×[…] column (Thermo Scientific) connected to an Orbitrap Fusion™ Tribrid™ (Thermo Scientific) as described in “Global ubiquitylation enrichment” section. The following modifications were used for protein identification and quantification: oxidation of methionine (M), acetylation of the protein N-terminus, and deamination for asparagine or glutamine (NQ). Results obtained from MaxQuant were assembled in Scaffold for data visualization.

For assay [2], the target named is T2, LZTR1-FLAG (human, UniProt Q8N653 1-840).
T2 construct: Expressed in HEK 293T, HeLa or U87 cells; used as cell lysate; also called LZTR1 wild type-FLAG; LZTR1 WT; not shown: FLAG tag at the C-terminus
T2 sequence (looked up): T1 sequence (looked up) with W810R
Kind of assay: IP/MS, LZTR1 wild type-FLAG, U87. The procedure: as §1

B1: BRAT1 (other, human, UniProt Q6PJG6 1-821, looked up)
chain: MDPECAQLLPALCAVLVDPRQPVADDTCLEKLLDWFKTVTEGESSVVLLQEHPCLVELLSHVLKVQDLSSGVLSFSLRLAGTFAAQENCFQYLQQGELLPGLFGEPGPLGRATWAVPTVRSGWIQGLRSLAQHPSALRFLADHGAVDTIFSLQGDSSLFVASAASQLLVHVLALSMRGGAEGQPCLPGGDWPACAQKIMDHVEESLCSAATPKVTQALNVLTTTFGRCQSPWTEALWVRLSPRVACLLERDPIPAAHSFVDLLLCVARSPVFSSSDGSLWETVARALSCLGPTHMGPLALGILKLEHCPQALRTQAFQVLLQPLACVLKATVQAPGPPGLLDGTADDATTVDTLLASKSSCAGLLCRTLAHLEELQPLPQRPSPWPQASLLGATVTVLRLCDGSAAPASSVGGHLCGTLAGCVRVQRAALDFLGTLSQGTGPQELVTQALAVLLECLESPGSSPTVLKKAFQATLRWLLSSPKTPGCSDLGPLIPQFLRELFPVLQKRLCHPCWEVRDSALEFLTQLSRHWGGQADFRCALLASEVPQLALQLLQDPESYVRASAVTAMGQLSSQGLHAPTSPEHAEARQSLFLELLHILSVDSEGFPRRAVMQVFTEWLRDGHADAAQDTEQFVATVLQAASRDLDWEVRAQGLELALVFLGQTLGPPRTHCPYAVALPEVAPAQPLTEALRALCHVGLFDFAFCALFDCDRPVAQKSCDLLLFLRDKIASYSSLREARGSPNTASAEATLPRWRAGEQAQPPGDQEPEAVLAMLRSLDLEGLRSTLAESSDHVEKSPQSLLQDMLATGGFLQGDEADCY
On to B1, for which the binding result in assay [1] and in assay [2] was “binds” throughout.

B2: CREB3L2 (other, human, UniProt Q70SY1 1-520, looked up)
chain: MEVLESGEQGVLQWDRKLSELSEPGDGEALMYHTHFSELLDEFSQNVLGQLLNDPFLSEKSVSMEVEPSPTSPAPLIQAEHSYSLCEEPRAQSPFTHITTSDSFNDDEVESEKWYLSTDFPSTSIKTEPVTDEPPPGLVPSVTLTITAISTPLEKEEPPLEMNTGVDSSCQTIIPKIKLEPHEVDQFLNFSPKEAPVDHLHLPPTPPSSHGSDSEGSLSPNPRLHPFSLPQTHSPSRAAPRAPSALSSSPLLTAPHKLQGSGPLVLTEEEKRTLIAEGYPIPTKLPLSKSEEKALKKIRRKIKNKISAQESRRKKKEYMDSLEKKVESCSTENLELRKKVEVLENTNRTLLQQLQKLQTLVMGKVSRTCKLAGTQTGTCLMVVVLCFAVAFGSFFQGYGPYPSATKMALPSQHSLQEPYTASVVRSRNLLIYEEHSPPEESSSPGSAGELGGWDRGSSLLRVSGLESRPDVDLPHFIISNETSLEKSVLLELQQHLVSAKLEGNETLKVVELDRRVNTTF
B2: the binding result in assay [1] and in assay [2] was “binds” in each case.

B3: CCNB2 (other, human, UniProt O95067 1-398, looked up)
chain: MALLRRPTVSSDLENIDTGVNSKVKSHVTIRRTVLEEIGNRVTTRAAQVAKKAQNTKVPVQPTKTTNVNKQLKPTASVKPVQMEKLAPKGPSPTPEDVSMKEENLCQAFSDALLCKIEDIDNEDWENPQLCSDYVKDIYQYLRQLEVLQSINPHFLDGRDINGRMRAILVDWLVQVHSKFRLLQETLYMCVGIMDRFLQVQPVSRKKLQLVGITALLLASKYEEMFSPNIEDFVYITDNAYTSSQIREMETLILKELKFELGRPLPLHFLRRASKAGEVDVEQHTLAKYLMELTLIDYDMVHYHPSKVAAAASCLSQKVLGQGKWNLKQQYYTGYTENEVLEVMQHMAKNVVKVNENLTKFIAIKNKYASSKLLKISMIPQLNSKAVKDLASPLIGRS
In the case of B3, the binding result in assay [1] and in assay [2] was “binds” in each case.

B4: CTH (other, human, UniProt P32929 1-405, looked up)
chain: MQEKDASSQGFLPHFQHFATQAIHVGQDPEQWTSRAVVPPISLSTTFKQGAPGQHSGFEYSRSGNPTRNCLEKAVAALDGAKYCLAFASGLAATVTITHLLKAGDQIICMDDVYGGTNRYFRQVASEFGLKISFVDCSKIKLLEAAITPETKLVWIETPTNPTQKVIDIEGCAHIVHKHGDIILVVDNTFMSPYFQRPLALGADISMYSATKYMNGHSDVVMGLVSVNCESLHNRLRFLQNSLGAVPSPIDCYLCNRGLKTLHVRMEKHFKNGMAVAQFLESNPWVEKVIYPGLPSHPQHELVKRQCTGCTGMVTFYIKGTLQHAEIFLKNLKLFTLAESLGGFESLAELPAIMTHASVLKNDRDVLGISDTLIRLSVGLEDEEDLLEDLDQALKAAHPPSGSHS
Take B4: the binding result in assay [1] and in assay [2] was “binds” each time.

B5: CELF1 (other, human, UniProt Q92879 1-486, looked up)
chain: MNGTLDHPDQPDLDAIKMFVGQVPRTWSEKDLRELFEQYGAVYEINVLRDRSQNPPQSKGCCFVTFYTRKAALEAQNALHNMKVLPGMHHPIQMKPADSEKNNAVEDRKLFIGMISKKCTENDIRVMFSSFGQIEECRILRGPDGLSRGCAFVTFTTRAMAQTAIKAMHQAQTMEGCSSPMVVKFADTQKDKEQKRMAQQLQQQMQQISAASVWGNLAGLNTLGPQYLALYLQLLQQTASSGNLNTLSSLHPMGGLNAMQLQNLAALAAAASAAQNTPSGTNALTTSSSPLSVLTSSGSSPSSSSSNSVNPIASLGALQTLAGATAGLNVGSLAGMAALNGGLGSSGLSNGTGSTMEALTQAYSGIQQYAAAALPTLYNQNLLTQQSIGAAGSQKEGPEGANLFIYHLPQEFGDQDLLQMFMPFGNVVSAKVFIDKQTNLSKCFGFVSYDNPVSAQAAIQSMNGFQIGMKRLKVQLKRSKNDSKPY
Regarding B5, the binding result in assay [1] and in assay [2] was “binds” in each case.

B6: CARS (other, human, UniProt P49589 2-748, looked up)
chain: ADSSGQQGKGRRVQPQWSPPAGTQPCRLHLYNSLTRNKEVFIPQDGKKVTWYCCGPTVYDASHMGHARSYISFDILRRVLKDYFKFDVFYCMNITDIDDKIIKRARQNHLFEQYREKRPEAAQLLEDVQAALKPFSVKLNETTDPDKKQMLERIQHAVQLATEPLEKAVQSRLTGEEVNSCVEVLLEEAKDLLSDWLDSTLGCDVTDNSIFSKLPKFWEGDFHRDMEALNVLPPDVLTRVSEYVPEIVNFVQKIVDNGYGYVSNGSVYFDTAKFASSEKHSYGKLVPEAVGDQKALQEGEGDLSISADRLSEKRSPNDFALWKASKPGEPSWPCPWGKGRPGWHIECSAMAGTLLGASMDIHGGGFDLRFPHHDNELAQSEAYFENDCWVRYFLHTGHLTIAGCKMSKSLKNFITIKDALKKHSARQLRLAFLMHSWKDTLDYSSNTMESALQYEKFLNEFFLNVKDILRAPVDITGQFEKWGEEEAELNKNFYDKKTAIHKALCDNVDTRTVMEEMRALVSQCNLYMAARKAVRKRPNQALLENIALYLTHMLKIFGAVEEDSSLGFPVGGPGTSLSLEATVMPYLQVLSEFREGVRKIAREQKVPEILQLSDALRDNILPELGVRFEDHEGLPTVVKLVDRNTLLKEREEKRRVEEEKRKKKEEAARRKQEQEAAKLAKMKIPPSEMFLSETDKYSKFDENGLPTHDMEGKELSKGQAKKLKKLFEAQEKLYKEYLQMAQNGSFQ
In the case of B6, the binding result in assay [1] and in assay [2] was “binds” throughout.
